Legend:
[1] = test system: ribosomal protein S6 (in purified 40S ribosomal subunits from liver)
[2] = test system: synthetic peptide representing C-terminus of S6 protein

recombinant p70α^S6k (Flag-tag or EE-tag version, expressed in HEK293 cells)
in vitro kinase reaction: phosphorylation of S6 protein in 40S subunits [1]: p70β^S6k (p70β-II isoform) phosphorylates the S6 protein in vitro nearly as efficiently as p70α^S6k
in vitro kinase reaction: phosphorylation of the synthetic peptide [2]: also phosphorylates this peptide but with slightly lower efficiency than observed with p70α^S6k
